Source: US20210179684A1

Key:
[1] = biological target: p75 neurotrophin receptor on cells (NIH-p75); test: flow cytometry on NIH-p75 cells; 20 nM Biotin-NT3, fluorescent avidin; no competitor
[2] = biological target: TrkA receptor on cells (NIH-TrkA); test: flow cytometry on NIH-TrkA cells; 20 nM Biotin-NT3, fluorescent avidin; no competitor
[3] = biological target: TrkC receptor on cells (NIH-TrkC); test: flow cytometry on NIH-TrkC cells; 20 nM Biotin-NT3, fluorescent avidin; no competitor
[4] = biological target: TrkA receptor on cells (NIH-TrkA); test: competition flow cytometry on NIH-TrkA cells; 20 nM Biotin-NT3 tracer, cold competitor in 3-fold excess; value is the tracer signal left
[5] = biological target: TrkC receptor on cells (NIH-TrkC); test: competition flow cytometry on NIH-TrkC cells; 20 nM Biotin-NT3 tracer, cold competitor at 200 nM; value is the tracer binding left
[6] = biological target: p75 neurotrophin receptor on cells (NIH-p75); test: competition flow cytometry on NIH-p75 cells; 20 nM Biotin-NT3 tracer, cold competitor at 200 nM; value is the tracer binding left
[7] = biological target: p75 neurotrophin receptor on cells (NIH-p75); test: competition flow cytometry on NIH-p75 cells; 20 nM Biotin-NT3 tracer, cold competitor at 200 nM; value is the tracer signal left
[8] = biological target: TrkC receptor on cells (NIH-TrkC); test: competition flow cytometry on NIH-TrkC cells; 20 nM Biotin-NT3 tracer, cold competitor at 200 nM; value is the tracer signal left
[9] = biological target: TrkA receptor on cells (NIH-TrkA); test: competition flow cytometry on NIH-TrkA cells; 20 nM Biotin-NT3 tracer, cold competitor in 3-fold excess; value is the tracer binding left
[10] = biological target: TrkC receptor on cells (NIH-TrkC); test: cell-based or functional assay

Row | MCF (mean channel fluorescence) [1] | MCF (mean channel fluorescence) [2] | MCF (mean channel fluorescence) [3] | MCF (mean channel fluorescence) [4] | % of maximal binding to TrkC [5] [%] | % of maximal binding to p75 [6] [%] | MCF (mean channel fluorescence) [7] | MCF (mean channel fluorescence) [8] | % of maximal binding to TrkA [9] [%] | Substance | % survival at 0.1 nM in culture [10] [%]
1 | 76 | 38 | 93 |  |  |  |  |  |  | Biotin-NT-3 (wild type NT-3 covalently linked to biotin, tracer) (from UniProt P18280 140-258) (ligand) | 
2 |  |  |  | 16 | 13 | 89 | 69 |  |  | NT-3 mutant (SEQ ID NO: 23), D15A/R114A/K115A (from UniProt P18280 140-258) (ligand) | 
3 |  |  |  | 20 | 18 |  |  | 25 | 36 | Wild type NT-3 (neurotrophin 3, mature form), unlabeled (from UniProt P18280 140-258) (ligand) | 34
